Data from patent US6780850.

Key:
[1] = biological target: T1, thrombin (IIa), active (UniProt P00734;P00734 P00734:328-363,P00734:364-622); assay: inhibition; inhibition of coagulation
[2] = biological target: T2, alpha-thrombin (active site blocked with fluorescein-PPACK) (Homo sapiens, UniProt P00734;P00734 P00734:328-363,P00734:364-622); assay: fluorometric titration; duplicate measurement gave 99 nM; 20 mM Tris, 150 mM NaCl, pH 7.4
[3] = biological target: T2, alpha-thrombin (active site blocked …); assay: fluorometric titration, 492/522 nm, 100 nM thrombin, 20 mM Tris, 150 mM NaCl, pH 7.4; exosite 1
[4] = biological target: T1, thrombin (IIa), active; assay: inhibition; kD in the hydrolysis of Chromozym-thrombin
[5] = biological target: T2, alpha-thrombin (active site blocked …); assay: fluorometric titration; duplicate measurement gave 110 nM; 20 mM Tris, 150 mM NaCl, pH 7.4
[6] = biological target: T2, alpha-thrombin (active site blocked …); assay: fluorometric titration, 20 mM Tris, 150 mM NaCl, pH 7.4; exosite 1
[7] = biological target: T2, alpha-thrombin (active site blocked …); assay: fluorometric titration, 20 mM Tris, 150 mM NaCl, pH 7.4; exosite 2

B1: ODN 1f (ssDNA)
DNA: GGTTGGTGTGGTTGG
modifications: 3'-biotin-streptavidin
- Ki [1]: ~100 nM
- Kd [2]: 41 nM

B2: ODN 1a (ssDNA)
DNA: GGTTGGTGTGGTTGG
- Kd [3]: 45 nM

B3: ODN 2f (ssDNA)
DNA: AGTCCGTGGTAGGGCAGGTTGGGGTGACT
modifications: 3'-biotin-streptavidin
- Kd [4]: 10.2 nM
- Kd [5]: 89 nM

B4: ODN 1e (ssDNA)
DNA: GGTTGGTGTGGTTGG
modifications: 3'-biotin (biotin TEG)
- Kd [6]: 55 nM

B5: ODN 2e (ssDNA)
DNA: AGTCCGTGGTAGGGCAGGTTGGGGTGACT
modifications: 3'-biotin (biotin TEG)
- Kd [7]: 85 nM

B6: ODN 2a (ssDNA)
DNA: AGTCCGTGGTAGGGCAGGTTGGGGTGACT
- Kd [7]: 16.5 nM
